[ ]: non-standard residue; d: D form. The star is where a group is joined. Dansyl = CN(C)c1cccc2c(S(=O)(=O)*)cccc12; 2Nal = N[C@@H](Cc1ccc2ccccc2c1)C(=O)O; dNle = CCCC[C@@H](N)C(=O)O; Ahx = NCCCCCC(=O)O; βAla = NCCC(=O)O; Sar = CNCC(=O)O
biological target: human RAD51 (human) (UniProt Q06609); assay: cell-based or functional assay
Sequence (Q06609 2-339 limits assumed): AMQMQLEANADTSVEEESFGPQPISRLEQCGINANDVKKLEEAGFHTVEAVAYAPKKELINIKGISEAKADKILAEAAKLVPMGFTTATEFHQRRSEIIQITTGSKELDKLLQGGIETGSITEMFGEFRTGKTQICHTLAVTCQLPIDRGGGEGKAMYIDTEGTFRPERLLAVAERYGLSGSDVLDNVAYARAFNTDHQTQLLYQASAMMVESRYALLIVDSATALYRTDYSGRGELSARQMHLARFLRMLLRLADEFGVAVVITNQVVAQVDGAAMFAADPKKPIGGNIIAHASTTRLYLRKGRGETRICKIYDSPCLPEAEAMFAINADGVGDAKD

Binder | IC50 [µM]
Dansyl-[Sar][dL][dNle][dR][dS][dV][dR][dL][dR][dV]G[dL][dR][dK][dR][dR][dR][dR][dR]-NH2 (SMILES CCCC[C@@H](NC(=O)[C@@H](CC(C)C)NC(=O)CN(C)S(=O)(=O)c1cccc2c(N(C)C)cccc12)C(=O)N[C@H](CCCNC(=N)N)C(=O)N[C@H](CO)C(=O)N[C@@H](C(=O)N[C@H](CCCNC(=N)N)C(=O)N[C@H](CC(C)C)C(=O)N[C@H](CCCNC(=N)N)C(=O)N[C@@H](C(=O)NCC(=O)N[C@H](CC(C)C)C(=O)N[C@H](CCCNC(=N)N)C(=O)N[C@H](CCCCN)C(=O)N[C@H](CCCNC(=N)N)C(=O)N[C@H](CCCNC(=N)N)C(=O)N[C@H](CCCNC(=N)N)C(=O)N[C@H](CCCNC(=N)N)C(=O)N[C@H](CCCNC(=N)N)C(N)=O)C(C)C)C(C)C) [Compound 19] | 6.2
Dansyl-[Sar][dL][dNle][dR][dS][dV][dR][dL][dR][dV]G[dL][dR][dR][dR][dR][dR][dR][Sar][Sar]-OMe (SMILES CCCC[C@@H](NC(=O)[C@@H](CC(C)C)NC(=O)CN(C)S(=O)(=O)c1cccc2c(N(C)C)cccc12)C(=O)N[C@H](CCCNC(=N)N)C(=O)N[C@H](CO)C(=O)N[C@@H](C(=O)N[C@H](CCCNC(=N)N)C(=O)N[C@H](CC(C)C)C(=O)N[C@H](CCCNC(=N)N)C(=O)N[C@@H](C(=O)NCC(=O)N[C@H](CC(C)C)C(=O)N[C@H](CCCNC(=N)N)C(=O)N[C@H](CCCNC(=N)N)C(=O)N[C@H](CCCNC(=N)N)C(=O)N[C@H](CCCNC(=N)N)C(=O)N[C@H](CCCNC(=N)N)C(=O)N[C@H](CCCNC(=N)N)C(=O)N(C)CC(=O)N(C)CC(=O)OC)C(C)C)C(C)C) [Compound 20] | 8.6
Ac-[dL][dNle][dR]G[dV][dR][dL][dR][dV]G[dL][dR][dK][dR][dR][dR][dR]G[dY]-NH2 (SMILES CCCC[C@@H](NC(=O)[C@@H](CC(C)C)NC(C)=O)C(=O)N[C@H](CCCNC(=N)N)C(=O)NCC(=O)N[C@@H](C(=O)N[C@H](CCCNC(=N)N)C(=O)N[C@H](CC(C)C)C(=O)N[C@H](CCCNC(=N)N)C(=O)N[C@@H](C(=O)NCC(=O)N[C@H](CC(C)C)C(=O)N[C@H](CCCNC(=N)N)C(=O)N[C@H](CCCCN)C(=O)N[C@H](CCCNC(=N)N)C(=O)N[C@H](CCCNC(=N)N)C(=O)N[C@H](CCCNC(=N)N)C(=O)N[C@H](CCCNC(=N)N)C(=O)NCC(=O)N[C@H](Cc1ccc(O)cc1)C(N)=O)C(C)C)C(C)C) [Compound 11] | 9
Ac-[dL][dNle][dR][dS][dV][dR][dL][dR][dV]G[dL][dR][dK][dR][dR][dR][dR][dR][dR][dR]-NH2 (SMILES CCCC[C@@H](NC(=O)[C@@H](CC(C)C)NC(C)=O)C(=O)N[C@H](CCCNC(=N)N)C(=O)N[C@H](CO)C(=O)N[C@@H](C(=O)N[C@H](CCCNC(=N)N)C(=O)N[C@H](CC(C)C)C(=O)N[C@H](CCCNC(=N)N)C(=O)N[C@@H](C(=O)NCC(=O)N[C@H](CC(C)C)C(=O)N[C@H](CCCNC(=N)N)C(=O)N[C@H](CCCCN)C(=O)N[C@H](CCCNC(=N)N)C(=O)N[C@H](CCCNC(=N)N)C(=O)N[C@H](CCCNC(=N)N)C(=O)N[C@H](CCCNC(=N)N)C(=O)N[C@H](CCCNC(=N)N)C(=O)N[C@H](CCCNC(=N)N)C(=O)N[C@H](CCCNC(=N)N)C(N)=O)C(C)C)C(C)C) [Compound 9] | 20

Continued, values first:

IC50 [µM] | Binder
20.6 | Ac-[dL][dNle][dR][dA][dV][dR][dL][dR][dV][βAla][dL][dR][Ahx][dR][Ahx][dR][Ahx][dR][Ahx][dR][Ahx][dR]-NH2 (SMILES CCCC[C@@H](NC(=O)[C@@H](CC(C)C)NC(C)=O)C(=O)N[C@H](CCCNC(=N)N)C(=O)N[C@H](C)C(=O)N[C@@H](C(=O)N[C@H](CCCNC(=N)N)C(=O)N[C@H](CC(C)C)C(=O)N[C@H](CCCNC(=N)N)C(=O)N[C@@H](C(=O)NCCC(=O)N[C@H](CC(C)C)C(=O)N[C@H](CCCNC(=N)N)C(=O)NCCCCCC(=O)N[C@H](CCCNC(=N)N)C(=O)NCCCCCC(=O)N[C@H](CCCNC(=N)N)C(=O)NCCCCCC(=O)N[C@H](CCCNC(=N)N)C(=O)NCCCCCC(=O)N[C@H](CCCNC(=N)N)C(=O)NCCCCCC(=O)N[C@H](CCCNC(=N)N)C(N)=O)C(C)C)C(C)C) [Compound 23]
6.2 | Ac-[dL][dNle][dR][dA][dV][dR][dL][dR][dV][βAla][dL][dR][Ahx][dR][Ahx][dR][Ahx][dR][Ahx][dR][Ahx][dR][Ahx][dY]-NH2 (SMILES CCCC[C@@H](NC(=O)[C@@H](CC(C)C)NC(C)=O)C(=O)N[C@H](CCCNC(=N)N)C(=O)N[C@H](C)C(=O)N[C@@H](C(=O)N[C@H](CCCNC(=N)N)C(=O)N[C@H](CC(C)C)C(=O)N[C@H](CCCNC(=N)N)C(=O)N[C@@H](C(=O)NCCC(=O)N[C@H](CC(C)C)C(=O)N[C@H](CCCNC(=N)N)C(=O)NCCCCCC(=O)N[C@H](CCCNC(=N)N)C(=O)NCCCCCC(=O)N[C@H](CCCNC(=N)N)C(=O)NCCCCCC(=O)N[C@H](CCCNC(=N)N)C(=O)NCCCCCC(=O)N[C@H](CCCNC(=N)N)C(=O)NCCCCCC(=O)N[C@H](CCCNC(=N)N)C(=O)NCCCCCC(=O)N[C@H](Cc1ccc(O)cc1)C(N)=O)C(C)C)C(C)C) [Compound 24]
18 | Ac-[dL][dNle][dR][βAla][dV][dR][dL][dR][dV][βAla][dL][dR][dK][dR][dR][dR][dR][dR]G[2Nal]-NH2 (SMILES CCCC[C@@H](NC(=O)[C@@H](CC(C)C)NC(C)=O)C(=O)N[C@H](CCCNC(=N)N)C(=O)NCCC(=O)N[C@@H](C(=O)N[C@H](CCCNC(=N)N)C(=O)N[C@H](CC(C)C)C(=O)N[C@H](CCCNC(=N)N)C(=O)N[C@@H](C(=O)NCCC(=O)N[C@H](CC(C)C)C(=O)N[C@H](CCCNC(=N)N)C(=O)N[C@H](CCCCN)C(=O)N[C@H](CCCNC(=N)N)C(=O)N[C@H](CCCNC(=N)N)C(=O)N[C@H](CCCNC(=N)N)C(=O)N[C@H](CCCNC(=N)N)C(=O)N[C@H](CCCNC(=N)N)C(=O)NCC(=O)N[C@@H](Cc1ccc2ccccc2c1)C(N)=O)C(C)C)C(C)C) [Compound 22]
25 | Ac-[dL][dNle][dR][dS][dV][dR][dL][dR][dV]G[dL][dR][dR][dR][dR][dR][dR][Sar][Sar]-OMe (SMILES CCCC[C@@H](NC(=O)[C@@H](CC(C)C)NC(C)=O)C(=O)N[C@H](CCCNC(=N)N)C(=O)N[C@H](CO)C(=O)N[C@@H](C(=O)N[C@H](CCCNC(=N)N)C(=O)N[C@H](CC(C)C)C(=O)N[C@H](CCCNC(=N)N)C(=O)N[C@@H](C(=O)NCC(=O)N[C@H](CC(C)C)C(=O)N[C@H](CCCNC(=N)N)C(=O)N[C@H](CCCNC(=N)N)C(=O)N[C@H](CCCNC(=N)N)C(=O)N[C@H](CCCNC(=N)N)C(=O)N[C@H](CCCNC(=N)N)C(=O)N[C@H](CCCNC(=N)N)C(=O)N(C)CC(=O)N(C)CC(=O)OC)C(C)C)C(C)C) [Compound 21]
14 | Ac-[dL][dNle][dR][dS][dV][dR][dL][dR][dV]G[dL][dR][Ahx][dR][Ahx][dR][Ahx][dR][Ahx][dR][Ahx][dR]-NH2 (SMILES CCCC[C@@H](NC(=O)[C@@H](CC(C)C)NC(C)=O)C(=O)N[C@H](CCCNC(=N)N)C(=O)N[C@H](CO)C(=O)N[C@@H](C(=O)N[C@H](CCCNC(=N)N)C(=O)N[C@H](CC(C)C)C(=O)N[C@H](CCCNC(=N)N)C(=O)N[C@@H](C(=O)NCC(=O)N[C@H](CC(C)C)C(=O)N[C@H](CCCNC(=N)N)C(=O)NCCCCCC(=O)N[C@H](CCCNC(=N)N)C(=O)NCCCCCC(=O)N[C@H](CCCNC(=N)N)C(=O)NCCCCCC(=O)N[C@H](CCCNC(=N)N)C(=O)NCCCCCC(=O)N[C@H](CCCNC(=N)N)C(=O)NCCCCCC(=O)N[C@H](CCCNC(=N)N)C(N)=O)C(C)C)C(C)C) [Compound 25]

Source: patent US20240018188A1
